Here are results for 1 substance from article PMC8939769.

For assay [1], the target named is SARS-CoV-2 S trimer (S2P ectodomain protein) (SARS-CoV-2) (UniProt P0DTC2). Put plainly: not stated; binding kinetics (ka, kd, KD) on the SARS-CoV-2 S trimer (S2P ectodomain protein); representative of at least two independent assays; assay details in the Supplementary materials.
For assay [2] the target is unchanged.

Usually Kd stands for the concentration at which binding is half-saturated. Low readings indicate higher affinity, high ones lower affinity. In turn, “AZD7442 (combination of AZD8895 and AZD1061)” yielded a Kd in assay [1] of 0.0137 nM. In addition, in assay [2], the neutralization of the USA-WA1/2020 strain of SARS-CoV-2 in vitro, IC50 is 10 ng/mL.
